{"source": "the Human Domainome abundance scans (Beltran et al. 2025)", "parents": {"B1": {"name": "Nucleolar transcription factor 1, residues 408 to 469; numbered along this chain, P17480 (parent)", "chain": "KRPVSAMFIFSEEKRRQLQEERPELSESELTRLLARMWNDLSEKKKAKYKAREAALKAQSER"}}, "note": "± gives the uncertainty stated by the source.", "data": [{"variants_of": "B1", "test": "abundance fitness (aPCA) (normalised: wild type 0, dead -1); higher = more abundant; growth selection in yeast, the domain comes from the species named", "conditions": "Homo sapiens", "values": [{"variant": "KRPESAMFIFSEEKRRQLQEERPELSESELTRLLARMWNDLSEKKKAKYKAREAALKAQSER", "abundance fitness": "0.037 ± 0.11"}, {"variant": "KRPRSAMFIFSEEKRRQLQEERPELSESELTRLLARMWNDLSEKKKAKYKAREAALKAQSER", "abundance fitness": "-0.24 ± 0.055"}, {"variant": "KRPDSAMFIFSEEKRRQLQEERPELSESELTRLLARMWNDLSEKKKAKYKAREAALKAQSER", "abundance fitness": "-0.011 ± 0.085"}, {"variant": "KRPGSAMFIFSEEKRRQLQEERPELSESELTRLLARMWNDLSEKKKAKYKAREAALKAQSER", "abundance fitness": "-0.094 ± 0.047"}, {"variant": "KRPLSAMFIFSEEKRRQLQEERPELSESELTRLLARMWNDLSEKKKAKYKAREAALKAQSER", "abundance fitness": "-0.031 ± 0.055"}, {"variant": "KRPNSAMFIFSEEKRRQLQEERPELSESELTRLLARMWNDLSEKKKAKYKAREAALKAQSER", "abundance fitness": "-0.104 ± 0.18"}, {"variant": "KRPMSAMFIFSEEKRRQLQEERPELSESELTRLLARMWNDLSEKKKAKYKAREAALKAQSER", "abundance fitness": "-0.031 ± 0.079"}, {"variant": "KRPISAMFIFSEEKRRQLQEERPELSESELTRLLARMWNDLSEKKKAKYKAREAALKAQSER", "abundance fitness": "-0.018 ± 0.065"}, {"variant": "KRPASAMFIFSEEKRRQLQEERPELSESELTRLLARMWNDLSEKKKAKYKAREAALKAQSER", "abundance fitness": "-0.061 ± 0.074"}, {"variant": "KRPKSAMFIFSEEKRRQLQEERPELSESELTRLLARMWNDLSEKKKAKYKAREAALKAQSER", "abundance fitness": "-0.053 ± 0.067"}, {"variant": "KLPVSAMFIFSEEKRRQLQEERPELSESELTRLLARMWNDLSEKKKAKYKAREAALKAQSER", "abundance fitness": "-0.215 ± 0.059"}, {"variant": "KTPVSAMFIFSEEKRRQLQEERPELSESELTRLLARMWNDLSEKKKAKYKAREAALKAQSER", "abundance fitness": "-0.143 ± 0.13"}, {"variant": "KFPVSAMFIFSEEKRRQLQEERPELSESELTRLLARMWNDLSEKKKAKYKAREAALKAQSER", "abundance fitness": "-0.043 ± 0.069"}, {"variant": "KWPVSAMFIFSEEKRRQLQEERPELSESELTRLLARMWNDLSEKKKAKYKAREAALKAQSER", "abundance fitness": "-0.453 ± 0.11"}, {"variant": "KHPVSAMFIFSEEKRRQLQEERPELSESELTRLLARMWNDLSEKKKAKYKAREAALKAQSER", "abundance fitness": "-0.025 ± 0.096"}, {"variant": "KDPVSAMFIFSEEKRRQLQEERPELSESELTRLLARMWNDLSEKKKAKYKAREAALKAQSER", "abundance fitness": "-0.109 ± 0.15"}, {"variant": "KIPVSAMFIFSEEKRRQLQEERPELSESELTRLLARMWNDLSEKKKAKYKAREAALKAQSER", "abundance fitness": "-0.158 ± 0.17"}, {"variant": "KGPVSAMFIFSEEKRRQLQEERPELSESELTRLLARMWNDLSEKKKAKYKAREAALKAQSER", "abundance fitness": "-0.204 ± 0.062"}, {"variant": "KAPVSAMFIFSEEKRRQLQEERPELSESELTRLLARMWNDLSEKKKAKYKAREAALKAQSER", "abundance fitness": "-0.151 ± 0.065"}, {"variant": "KNPVSAMFIFSEEKRRQLQEERPELSESELTRLLARMWNDLSEKKKAKYKAREAALKAQSER", "abundance fitness": "-0.003 ± 0.072"}, {"variant": "KEPVSAMFIFSEEKRRQLQEERPELSESELTRLLARMWNDLSEKKKAKYKAREAALKAQSER", "abundance fitness": "-0.132 ± 0.12"}, {"variant": "KMPVSAMFIFSEEKRRQLQEERPELSESELTRLLARMWNDLSEKKKAKYKAREAALKAQSER", "abundance fitness": "-0.13 ± 0.073"}, {"variant": "KQPVSAMFIFSEEKRRQLQEERPELSESELTRLLARMWNDLSEKKKAKYKAREAALKAQSER", "abundance fitness": "-0.317 ± 0.1"}, {"variant": "KCPVSAMFIFSEEKRRQLQEERPELSESELTRLLARMWNDLSEKKKAKYKAREAALKAQSER", "abundance fitness": "-0.178 ± 0.095"}, {"variant": "KYPVSAMFIFSEEKRRQLQEERPELSESELTRLLARMWNDLSEKKKAKYKAREAALKAQSER", "abundance fitness": "0.01 ± 0.16"}, {"variant": "KSPVSAMFIFSEEKRRQLQEERPELSESELTRLLARMWNDLSEKKKAKYKAREAALKAQSER", "abundance fitness": "-0.072 ± 0.068"}, {"variant": "KVPVSAMFIFSEEKRRQLQEERPELSESELTRLLARMWNDLSEKKKAKYKAREAALKAQSER", "abundance fitness": "-0.049 ± 0.056"}, {"variant": "KRTVSAMFIFSEEKRRQLQEERPELSESELTRLLARMWNDLSEKKKAKYKAREAALKAQSER", "abundance fitness": "0.021 ± 0.095"}, {"variant": "KRFVSAMFIFSEEKRRQLQEERPELSESELTRLLARMWNDLSEKKKAKYKAREAALKAQSER", "abundance fitness": "-0.021 ± 0.079"}, {"variant": "KRVVSAMFIFSEEKRRQLQEERPELSESELTRLLARMWNDLSEKKKAKYKAREAALKAQSER", "abundance fitness": "-0.02 ± 0.09"}, {"variant": "KRSVSAMFIFSEEKRRQLQEERPELSESELTRLLARMWNDLSEKKKAKYKAREAALKAQSER", "abundance fitness": "-0.014 ± 0.052"}, {"variant": "KRYVSAMFIFSEEKRRQLQEERPELSESELTRLLARMWNDLSEKKKAKYKAREAALKAQSER", "abundance fitness": "-0.071 ± 0.082"}, {"variant": "KRQVSAMFIFSEEKRRQLQEERPELSESELTRLLARMWNDLSEKKKAKYKAREAALKAQSER", "abundance fitness": "-0.011 ± 0.058"}, {"variant": "KRWVSAMFIFSEEKRRQLQEERPELSESELTRLLARMWNDLSEKKKAKYKAREAALKAQSER", "abundance fitness": "-0.297 ± 0.066"}, {"variant": "KRIVSAMFIFSEEKRRQLQEERPELSESELTRLLARMWNDLSEKKKAKYKAREAALKAQSER", "abundance fitness": "0.036 ± 0.12"}, {"variant": "KRDVSAMFIFSEEKRRQLQEERPELSESELTRLLARMWNDLSEKKKAKYKAREAALKAQSER", "abundance fitness": "-0.04 ± 0.12"}, {"variant": "KRCVSAMFIFSEEKRRQLQEERPELSESELTRLLARMWNDLSEKKKAKYKAREAALKAQSER", "abundance fitness": "-0.264 ± 0.1"}, {"variant": "KRHVSAMFIFSEEKRRQLQEERPELSESELTRLLARMWNDLSEKKKAKYKAREAALKAQSER", "abundance fitness": "-0.061 ± 0.088"}, {"variant": "KRLVSAMFIFSEEKRRQLQEERPELSESELTRLLARMWNDLSEKKKAKYKAREAALKAQSER", "abundance fitness": "-0.068 ± 0.068"}, {"variant": "KREVSAMFIFSEEKRRQLQEERPELSESELTRLLARMWNDLSEKKKAKYKAREAALKAQSER", "abundance fitness": "-0.059 ± 0.099"}, {"variant": "KRAVSAMFIFSEEKRRQLQEERPELSESELTRLLARMWNDLSEKKKAKYKAREAALKAQSER", "abundance fitness": "-0.137 ± 0.068"}, {"variant": "KRRVSAMFIFSEEKRRQLQEERPELSESELTRLLARMWNDLSEKKKAKYKAREAALKAQSER", "abundance fitness": "-0.095 ± 0.033"}, {"variant": "KRGVSAMFIFSEEKRRQLQEERPELSESELTRLLARMWNDLSEKKKAKYKAREAALKAQSER", "abundance fitness": "-0.083 ± 0.054"}]}]}
